Test results published in patent US7261893 (Pfizer, dated 2007).
“And” between values parts separate entries of the source, which are not always exact repeats. Identical values can stand only once.

B1: mature human BMP-11 (ligand, UniProt O95390 299-407, looked up)
chain: NLGLDCDEHSSESRCCRYPLTVDFEAFGWDWIIAPKRYKANYCSGQCEYMFMQKYPHTHLVQQANPRGSAGPCCTPTKMSPINMLYFNDKQQIIYGKIPGMVVDRCGCS
notes: mature; also called GDF-11; biotinylated BMP-11
B2: Myo22 scFv (scFv)
scFv: EVQLLESGGGLVQPGGSLRLSCAASGFTFSSYAMSWVRQAPGKGLEWVSAISGSGGSTYYADSVKGRFTISRDNSKNTLYLQMNSLRAEDTAVYYCERMGPCTGGSCYDTLGNWGRGTLVTVSSGGGGSGGGGSGGGGSAQSVLTQPPSVSGAPGQRVTISCTGSSSNIGAGYDVHWYQQLPGAAPKLLIRGNGNRPSGVPDRFSVSKSGYSASLAITGLQPADEGVYYCQSYDSSLSGSKVFGQGTKLTVLGAAAHHHHHH
notes: tags from the vector are not described; also called scFv of Myo22
B3: Myo29 scFv (scFv)
scFv: QVQLVQSGAEVKKPGASVKVSCKASGYTFTSYYMHWVRQAPGQGLEWMGIINPSGGSTSYAQKFQGRVTMTRDTSTSTVYMELSSLRSEDTAVYYCARDENWGFDPWGQGTLVTVSSGGGGSGGGGSGGGGSALSYELTQPPSVSVSPGQTATITCSGHALGDKFVSWYQQGSGQSPVLVIYDDTQRPSGIPGRFSGSNSGNTATLTISGTQAMDEADYFCQAWDSSFVFGGGTKVTVLGAAAHHHHHH
notes: tags from the vector are not described; also called scFv of Myo29
B4: Myo28 scFv (scFv)
scFv: QVTLKESGGGLVQPGGSLRLSCAASGFTFSRYVINWVRQAPGKGLEWVSAISVTGGSTAYADSVRGRFTISRDNSKNTLYLQMNSLRAEDTAVYYCTKGQWERGSYYFDYWGRGTLVTVSSGGGGSGGGGSGGGGSAQSVLTQPPSVSGAPGQRVTISCTGSSSNIGDGYDVHWYQQLPGTAPKLLIYGNSHRPSGVPDRFSGSKSDTSASLAITGLQVEDEADYFCHSYDGSVSGWIFGGGTKLTVLGAAAHHHHHH
notes: tags from the vector are not described; also called scFv of Myo28
B5: Myo28 human IgG1 antibody (antibody, V domains shown)
VH: QVTLKESGGGLVQPGGSLRLSCAASGFTFSRYVINWVRQAPGKGLEWVSAISVTGGSTAYADSVRGRFTISRDNSKNTLYLQMNSLRAEDTAVYYCTKGQWERGSYYFDYWGRGTLVTVSS
VL: QSVLTQPPSVSGAPGQRVTISCTGSSSNIGDGYDVHWYQQLPGTAPKLLIYGNSHRPSGVPDRFSGSKSDTSASLAITGLQVEDEADYFCHSYDGSVSGWIFGGGTKLTVLG
B6: Myo29 human IgG1 antibody (antibody, V domains shown)
VH: QVQLVQSGAEVKKPGASVKVSCKASGYTFTSYYMHWVRQAPGQGLEWMGIINPSGGSTSYAQKFQGRVTMTRDTSTSTVYMELSSLRSEDTAVYYCARDENWGFDPWGQGTLVTVSS
VL: SYELTQPPSVSVSPGQTATITCSGHALGDKFVSWYQQGSGQSPVLVIYDDTQRPSGIPGRFSGSNSGNTATLTISGTQAMDEADYFCQAWDSSFVFGGGTKVTVLG

Columns and labels:
[1] = biological target: T1, Recombinant ActRIIB-Fc chimera (R&D Systems, Cat. No. 339-RB/CF) (UniProt Q13705 19-134); experiment: ELISA, biotinylated ligand titrated on plate-coated ActRIIB-Fc, streptavidin-HRP
T1 construct: Bought reagent, coated on the plate; also called ActRIIB receptor; Fc part of the bought chimera not given

[2] = biological target: T2, mature human GDF-8 (growth and differentiation factor-8) (human, UniProt O14793 267-375); experiment: inhibition of bioGDF-8 binding to plate-coated ActRIIB-Fc, purified scFv titrated, DELFIA TRF
T2 construct: also called myostatin; mature GDF-8

[3] = biological target: T2, mature human GDF-8 (growth and …); experiment: cell-based or functional assay
[4] = biological target: T2, mature human GDF-8 (growth and …); experiment: inhibition of biotinylated GDF-8 (10 ng/ml) binding to plate-coated ActRIIB-Fc, ELISA, Myo29 preincubated with the ligand
mature human BMP-11 = biological target: B1; experiment: inhibition of biotinylated BMP-11 (10 ng/ml) binding to plate-coated ActRIIB-Fc, ELISA, Myo29 preincubated with the ligand

T1 sequence (Q13705 19-134, change not shown): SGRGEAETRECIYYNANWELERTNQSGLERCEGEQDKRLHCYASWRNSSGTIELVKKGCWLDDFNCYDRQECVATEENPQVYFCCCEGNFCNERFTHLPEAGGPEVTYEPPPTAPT

Binder: B1
EC50 [1]: 0.04 µg/mL

Binder: B2
IC50 [2]: 60 nM

Binder: B3
IC50 [2]: 2.4 nM

Binder: B4
IC50 [2]: 1.7 nM

Binder: B5
RGA and ActRIIB binding assays (not said which), IC50 [3]: 0.2 to 0.35 nM

Binder: B6
pGL3(CAGA)12 reporter gene assay (RGA) in A204 cells, GDF-8 at 20 ng/ml, IC50 [3]: 15 ng/ml to 30 ng/ml (2×) and 0.1 nM to 0.2 nM (2×)
IC50 [4]: 0.2 to 0.4 nM
IC50 (mature human BMP-11): 0.2 to 0.4 nM
